Experimental data taken from article PMC4243247 (Nature Communications, 2014).
Residue numbers refer to the chain shown, from its start. Names and notes keep the numbering of the source.

Tests used:
[1] = target: T1, USP4 catalytic domain (USP4 CD, residues 296–925) (human, UniProt Q13107 296-925); assay: cell-based or functional assay
T1 sequence (looked up): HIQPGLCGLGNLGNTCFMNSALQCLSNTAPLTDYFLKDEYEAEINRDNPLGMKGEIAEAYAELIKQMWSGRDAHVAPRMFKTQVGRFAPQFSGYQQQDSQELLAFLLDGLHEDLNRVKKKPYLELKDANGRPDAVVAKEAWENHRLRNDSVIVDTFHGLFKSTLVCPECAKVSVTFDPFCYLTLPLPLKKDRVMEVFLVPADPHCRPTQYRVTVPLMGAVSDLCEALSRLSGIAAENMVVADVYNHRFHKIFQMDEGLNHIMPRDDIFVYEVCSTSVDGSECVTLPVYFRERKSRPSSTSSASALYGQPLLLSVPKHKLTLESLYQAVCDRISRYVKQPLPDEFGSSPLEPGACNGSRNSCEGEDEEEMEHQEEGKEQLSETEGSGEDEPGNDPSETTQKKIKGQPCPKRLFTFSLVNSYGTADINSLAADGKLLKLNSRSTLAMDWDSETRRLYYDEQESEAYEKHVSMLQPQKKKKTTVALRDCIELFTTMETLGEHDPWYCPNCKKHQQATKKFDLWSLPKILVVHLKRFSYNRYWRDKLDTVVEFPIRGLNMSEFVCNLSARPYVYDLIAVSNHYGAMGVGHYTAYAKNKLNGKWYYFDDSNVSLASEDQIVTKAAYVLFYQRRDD

[2] = target: T2, USP4 insert (residues 483–765), biotinylated on lysines (human, UniProt Q13107 483-765, biotin on lysines (half molar amounts of EZ-Link Sulfo-NHS-LC-LC-biotin)); assay: SPR; Biacore T100, 25 °C; ~100 RU of biotinylated USP4 construct on SA chip; DUSP–Ubl concentration series flowed at 30 μl/min in 20 mM HEPES pH 7.5, 150 mM NaCl, 5 mM DTT, 0.05% Tween 20 with NSB reducer; apparent KD from EvilFit after removing the slow nonspecific off-rate component; conditions: both partners purified
T2 construct: USP4, human, the domain inserted within the catalytic core (carries a Ubl domain), residues 483-765; source: E. coli BL21(DE3), purified, then biotinylated
T2 sequence (looked up): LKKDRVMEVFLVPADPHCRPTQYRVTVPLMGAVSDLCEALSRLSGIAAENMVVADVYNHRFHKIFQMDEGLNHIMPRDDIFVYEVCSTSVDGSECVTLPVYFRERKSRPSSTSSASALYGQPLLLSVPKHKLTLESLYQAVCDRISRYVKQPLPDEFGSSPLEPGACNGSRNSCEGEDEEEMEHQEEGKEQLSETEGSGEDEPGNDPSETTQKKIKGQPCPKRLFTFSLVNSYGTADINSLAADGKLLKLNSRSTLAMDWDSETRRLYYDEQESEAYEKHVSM

[3] = target: T3, USP4 CD (residues 296–925), biotinylated on lysines (human, UniProt Q13107 296-925, biotin on lysines (half molar amounts of EZ-Link Sulfo-NHS-LC-LC-biotin)); assay: as above; conditions: both partners purified
T3 construct: USP4, human, catalytic domain with the insert, residues 296-925; same construct as m2, biotinylated for capture on the SA sensor chip; also called immobilized USP4 CD; biotinylated USP4; source: E. coli BL21(DE3), purified, then biotinylated
T3 sequence (looked up): T1 sequence (looked up)

[4] = target: T4, N-terminally TAMRA-labelled ubiquitin (UniProt P0CG48 1-76, TAMRA on the N-terminus); assay: fluorescence polarisation; stopped-flow, dissociation: USP4 constructs (12.5–250 nM) incubated with 2.5 nM TAMRA-ubiquitin 10–30 min, mixed with equal volume of 2.5 μM non-labelled ubiquitin; 20 °C; 20 mM HEPES pH 7.5, 150 mM NaCl, 5 mM DTT, 0.05% Tween 20; global fit to a two-phase decay (k_slow, k_fast); conditions: both partners purified
T4 construct: ubiquitin, the cut product of the ubiquitin precursors; also called TAMRAUb; TAMRA-Ubiquitin

[5] = target: T4, N-terminally TAMRA-labelled ubiquitin; assay: fluorescence polarisation; equilibrium: different concentrations of USP4 with 2.5 nM TAMRA-ubiquitin; same setup as the Ub–Rhod assays (25 °C, 20 mM HEPES pH 7.5, 150 mM NaCl, 5 mM DTT, 0.05% Tween 20); one-site binding model accounting for ligand depletion; conditions: both partners purified
[6] = target: T4, N-terminally TAMRA-labelled ubiquitin; assay: fluorescence polarisation; stopped-flow, association: equal volumes of USP4 (100–1,000 nM) and TAMRA-ubiquitin rapidly mixed; 20 °C; 20 mM HEPES pH 7.5, 150 mM NaCl, 5 mM DTT, 0.05% Tween 20; single exponential, kon as slope of Kobs against USP4 concentration; conditions: both partners purified

B1: USP4 DUSP–Ubl domain (residues 8–228) (domain or fragment, human, UniProt Q13107 8-228, looked up)
chain: RERPDAETQKSELGPLMRTTLQRGAQWYLIDSRWFKQWKKYVGFDSWDMYNVGEHNLFPGPIDNSGLFSDPESQTLKEHLIDELDYVLVPTEAWNKLLNWYGCVEGQQPIVRKVVEHGLFVKHCKVEVYLLELKLCENSDPTNVLSCHFSKADTIATIEKEMRKLFNIPAERETRLWNKYMSNTYEQLSKLDNTVQDAGLYQGQVLVIEPQNEDGTWPRQT
notes: USP4, human, N-terminal tandem DUSP–Ubl domain, residues 8-228
Ub–Rhod catalytic rate of USP4 CD (50 nM, 5 μM substrate) with DUSP–Ubl added in trans at different concentrations up to 150 μM [1]: ~9 fold
Kd [2]: ~44 µM
Kd [3]: ~100 µM

B2: USP4 DUSP–Ubl Y136A (domain or fragment, human, UniProt Q13107 8-228, looked up)
chain: B1 chain with Y129A
notes: USP4, human, DUSP–Ubl domain residues 8-228 with Y136A at the interface of the DUSP and Ubl domains; also called mutant DUSP–Ubl
binding result [2]: binds
binding result [3]: binds

B3: USP4 FL F386G (enzyme, human, UniProt Q13107 8-925, looked up)
chain: RERPDAETQKSELGPLMRTTLQRGAQWYLIDSRWFKQWKKYVGFDSWDMYNVGEHNLFPGPIDNSGLFSDPESQTLKEHLIDELDYVLVPTEAWNKLLNWYGCVEGQQPIVRKVVEHGLFVKHCKVEVYLLELKLCENSDPTNVLSCHFSKADTIATIEKEMRKLFNIPAERETRLWNKYMSNTYEQLSKLDNTVQDAGLYQGQVLVIEPQNEDGTWPRQTLQSKSSTAPSRNFTTSPKSSASPYSSVSASLIANGDSTSTCGMHSSGVSRGGSGFSASYNCQEPPSSHIQPGLCGLGNLGNTCFMNSALQCLSNTAPLTDYFLKDEYEAEINRDNPLGMKGEIAEAYAELIKQMWSGRDAHVAPRMFKTQVGRFAPQGSGYQQQDSQELLAFLLDGLHEDLNRVKKKPYLELKDANGRPDAVVAKEAWENHRLRNDSVIVDTFHGLFKSTLVCPECAKVSVTFDPFCYLTLPLPLKKDRVMEVFLVPADPHCRPTQYRVTVPLMGAVSDLCEALSRLSGIAAENMVVADVYNHRFHKIFQMDEGLNHIMPRDDIFVYEVCSTSVDGSECVTLPVYFRERKSRPSSTSSASALYGQPLLLSVPKHKLTLESLYQAVCDRISRYVKQPLPDEFGSSPLEPGACNGSRNSCEGEDEEEMEHQEEGKEQLSETEGSGEDEPGNDPSETTQKKIKGQPCPKRLFTFSLVNSYGTADINSLAADGKLLKLNSRSTLAMDWDSETRRLYYDEQESEAYEKHVSMLQPQKKKKTTVALRDCIELFTTMETLGEHDPWYCPNCKKHQQATKKFDLWSLPKILVVHLKRFSYNRYWRDKLDTVVEFPIRGLNMSEFVCNLSARPYVYDLIAVSNHYGAMGVGHYTAYAKNKLNGKWYYFDDSNVSLASEDQIVTKAAYVLFYQRRDD
notes: USP4, human, residues 8-925, switching loop mutant F386G; made with the QuickChange mutagenesis kit
k_fast (dissociation, fast component) [4]: 0.26 ± 0.01 s⁻¹
k_slow (dissociation, slow component) [4]: 0.024 ± 0.002 s⁻¹

B4: USP4 CD F386G (domain or fragment, human, UniProt Q13107 296-925, looked up)
chain: T1 sequence (looked up) with F91G
notes: USP4, human, catalytic domain residues 296-925, switching loop mutant F386G; made with the QuickChange mutagenesis kit
Kd [5]: ~1 µM
k_fast (dissociation, fast component) [4]: 0.12 ± 0.016 s⁻¹
k_slow (dissociation, slow component) [4]: 0.015 ± 0.0006 s⁻¹
kon [6]: 35000 ± 7000 M⁻¹ s⁻¹
